Consider four molecules from publication PMC12293987, “Dissecting the tRNA Fragment tRF3E–Nucleolin Interaction: Implications in Breast Cancer”.

By Kd is commonly meant the free concentration of one partner at which half of the binding sites on the other are occupied at equilibrium, for simple one-to-one binding.

Bounds are passed on as bounds.

For data set [1], the target named is T1, Nucleolin (NCL) (UniProt P19338 1-710). Briefly: EMSA; complex I, NCL in excess; Kd taken as protein concentration retarding 50% of probe; 20 mM Tris-HCl pH 7.5, 50 mM KCl, 10% glycerol, 0.3 mg/mL BSA, 0.02% Nonidet P-40, 15 uL, 2 pmol 32P-RNA, 20 °C 30 min (competition: further 30 min); native 7%. The note with it: protein: recombinant, tags: His.
T1 sequence (P19338 whole entry): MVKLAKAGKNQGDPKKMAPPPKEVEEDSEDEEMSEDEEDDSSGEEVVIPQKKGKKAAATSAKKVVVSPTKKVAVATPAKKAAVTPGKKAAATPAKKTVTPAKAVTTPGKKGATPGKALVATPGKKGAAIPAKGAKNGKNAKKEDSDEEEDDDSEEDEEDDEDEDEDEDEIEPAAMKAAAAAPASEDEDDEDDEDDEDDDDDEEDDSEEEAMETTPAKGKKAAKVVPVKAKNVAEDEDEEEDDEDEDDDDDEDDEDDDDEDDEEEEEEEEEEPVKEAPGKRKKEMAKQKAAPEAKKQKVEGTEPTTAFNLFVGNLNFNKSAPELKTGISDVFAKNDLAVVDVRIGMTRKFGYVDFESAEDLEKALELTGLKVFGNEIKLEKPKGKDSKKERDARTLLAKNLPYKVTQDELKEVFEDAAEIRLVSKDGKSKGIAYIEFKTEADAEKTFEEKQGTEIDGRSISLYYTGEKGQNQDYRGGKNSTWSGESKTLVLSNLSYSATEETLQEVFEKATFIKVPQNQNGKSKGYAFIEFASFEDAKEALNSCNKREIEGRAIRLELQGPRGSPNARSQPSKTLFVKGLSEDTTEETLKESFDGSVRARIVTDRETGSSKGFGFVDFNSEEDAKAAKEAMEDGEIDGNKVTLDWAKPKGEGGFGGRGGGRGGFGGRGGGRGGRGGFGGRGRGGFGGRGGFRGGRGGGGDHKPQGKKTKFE
Data set [2] deals with T1, Nucleolin (NCL). Briefly: EMSA; complete loss of retardation; 20 mM Tris-HCl pH 7.5, 50 mM KCl, 10% glycerol, 0.3 mg/mL BSA, 0.02% Nonidet P-40, 15 uL, 2 pmol 32P-RNA, 20 °C 30 min (competition: further 30 min); native 7%. The conditions noted are these: protein: recombinant; tags: His; label: 32P; predicted fold, CGA at junction of double-stranded and unstructured region.

In data set [3] the target is T1, Nucleolin (NCL). Briefly: EMSA; printed as KD >= 1500 nM; still interacts with very low affinity; 20 mM Tris-HCl pH 7.5, 50 mM KCl, 10% glycerol, 0.3 mg/mL BSA, 0.02% Nonidet P-40, 15 uL, 2 pmol 32P-RNA, 20 °C 30 min (competition: further 30 min); native 7%. The note with it: protein: recombinant; tags: His; label: 32P; predicted fold, CGA in bubble.

Regarding AGGCGGCCCGGGUUCGACUCCCGGUGUGGGAA (structured_RNA) [wt tRF3E], the Kd with Nucleolin (NCL) [1] (hairpin (predicted stems, CGA 15-17 in loop)) is around 280 nM. Turning to AGGCGGAAAUGGUUCGACUCCCGGUGUGGGAA (structured_RNA) [M6-11], in the data set with Nucleolin (NCL) [2], the binding result is on record as “no binding”.

AGGCGGCCCGGGUUCGACUAAAUGUGUGGGAA (structured_RNA) [M19-24]: the Kd with Nucleolin (NCL) [1] (hairpin (predicted, CGA 15-17 in loop)) was around 280 nM. As to AGGCGGAAAUGGUUCGACUAAAUGUGUGGGAA (structured_RNA) [D2M], the Kd with Nucleolin (NCL) [3] is above 1500 nM.
